# Experimental data: article PMC10590331, “Purification and Biochemical Characterization of the DNA Binding Domain of the Nitrogenase Transcriptional Activator NifA from Gluconacetobacter diazotrophicus”
# T1: NifA 2C-DBD (DNA binding domain with upstream Cys pair) (Gluconacetobacter diazotrophicus, UniProt A9H5T0 520-581)
# T1 sequence: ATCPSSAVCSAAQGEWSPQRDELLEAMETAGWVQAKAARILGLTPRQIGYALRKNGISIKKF
# T2: NifA NC-DBD (DNA binding domain without Cys pair) (Gluconacetobacter diazotrophicus, UniProt A9H5T0 530-581)
# T2 sequence: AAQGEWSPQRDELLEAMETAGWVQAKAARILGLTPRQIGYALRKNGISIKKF
# Tests used:
# Conditions in all cases: protein: recombinant; tags: N-terminal His-tag (pET28a, NheI/BamHI) removed with thrombin; label: 5' TAMRA on forward strand; blunt
# [1] = molecular target: T1, NifA 2C-DBD (DNA binding domain with …); test: fluorescence anisotropy; reduced, 5 mM DTT; 10 mM Tris pH 8, 60 mM NaCl, 0.2 mM MgCl2 (5 mM DTT when reducing), 900 nM probe, 0-80 µM protein, 30 min at room temperature
# [2] = molecular target: T2, NifA NC-DBD (DNA binding domain without …); test: fluorescence anisotropy; no DTT; 10 mM Tris pH 8, 60 mM NaCl, 0.2 mM MgCl2 (5 mM DTT when reducing), 900 nM probe, 0-80 µM protein, 30 min at room temperature
# [3] = molecular target: T1, NifA 2C-DBD (DNA binding domain with …); test: fluorescence anisotropy; oxidized (disulfide), no DTT; 10 mM Tris pH 8, 60 mM NaCl, 0.2 mM MgCl2 (5 mM DTT when reducing), 900 nM probe, 0-80 µM protein, 30 min at room temperature
binder,measurement,setting,value
"nifH-UAS duplex, TAMRA-labeled (dsDNA) DNA 1: CGGTTTTGTCAGGCTTCGCACAAAGCCG DNA 2: CGGCTTTGTGCGAAGCCTGACAAAACCG",Kd,[1],31.5 ± 8.1 µM
same,Kd,[2],20 ± 5.6 µM
same,Kd,[3],34.5 ± 8.4 µM
